{
  "source": "patent US20090258363",
  "key": {"[1]": {"system": "296S ZFP-FokI (cells) (synthetic)", "assay": "cell_activity", "details": "with 287; 0.6 alone, 0.01 donor only"}, "[2]": {"system": "296S ZFP-FokI E490K E490K (FokI numbering) (synthetic)", "assay": "cell_activity", "details": "with 287 Q486E; 0.01 alone"}, "[3]": {"system": "ZFP-FokI 10-residue ZC linker (synthetic)", "assay": "cleavage_in_vitro"}, "[4]": {"system": "ZFP-FokI 4-residue ZC linker (synthetic)", "assay": "cleavage_in_vitro"}, "[5]": {"system": "CCR-5 ZFN (GATGAGGATGAC) (synthetic)", "assay": "cell_activity", "details": "K562, with p32"}, "[6]": {"system": "ZFP-FokI 2-residue ZC linker (synthetic)", "assay": "cleavage_in_vitro"}, "[7]": {"system": "CCR-5 ZFN (AAACTGCAAAAG) (synthetic)", "assay": "cell_activity", "details": "K562, with p31"}, "[8]": {"system": "287A ZFP-FokI (cells) (synthetic)", "assay": "cell_activity", "details": "with 296; 0.16 alone, 0.01 donor only"}, "[9]": {"system": "287A ZFP-FokI Q486E Q486E (FokI numbering) (synthetic)", "assay": "cell_activity", "details": "with 296 E490K; 0.0 alone"}},
  "note": "Read-outs that look alike come from different tables or passages of the source.",
  "data": [
    {"sequence": "GAAGCAGCA (double strand) [296S site]", "values": [
      {"measurement": "activity (% corrected cells)", "setting": "[1]", "value": 1.2},
      {"measurement": "activity (% corrected cells)", "setting": "[2]", "value": 0.62}
    ]},
    {"sequence": "CTAGCATTATCCGAGTTCACCACACAACTCGGATAATGCTAG (double strand) [8 bp separation]", "values": [
      {"measurement": "activity", "setting": "[3]", "value": 63, "unit": "% cleaved"},
      {"measurement": "activity", "setting": "[4]", "value": 8, "unit": "% cleaved"}
    ]},
    {"sequence": "GATGAGGATGAC (double strand) [CCR-5 site 1]", "values": [
      {"measurement": "activity (% targeted insertion)", "setting": "[5]", "value": 1}
    ]},
    {"sequence": "CTAGCATTATCCGAGTTCACACACACAACTCGGATAATGCTAG (double strand) [9 bp separation]", "values": [
      {"measurement": "activity", "setting": "[4]", "value": 23, "unit": "% cleaved"}
    ]},
    {"sequence": "CTAGCATTATCCGAGTTCACCACCAACCACACCAACTCGGATAATGCTAG (double strand) [16 bp separation]", "values": [
      {"measurement": "activity", "setting": "[6]", "value": 59, "unit": "% cleaved"},
      {"measurement": "activity", "setting": "[4]", "value": 100, "unit": "% cleaved"}
    ]},
    {"sequence": "CTAGCATTATCCGAGTTCACACAACTCGGATAATGCTAG (double strand) [5 bp separation]", "values": [
      {"measurement": "activity", "setting": "[4]", "value": 92, "unit": "% cleaved"}
    ]},
    {"sequence": "CTAGCATTATCCGAGTTCACCACCAACACAACTCGGATAATGCTAG (double strand) [12 bp separation]", "values": [
      {"measurement": "activity", "setting": "[4]", "value": 22, "unit": "% cleaved"}
    ]},
    {"sequence": "CTAGGCATTATCCGAGTTCACCACAACTCGGATAATGACTAG (double strand) [6 bp separation]", "values": [
      {"measurement": "activity", "setting": "[3]", "value": 76, "unit": "% cleaved"},
      {"measurement": "activity", "setting": "[6]", "value": 78, "unit": "% cleaved"},
      {"measurement": "activity", "setting": "[4]", "value": 95, "unit": "% cleaved"}
    ]},
    {"sequence": "CTAGCATTATCCGAGTTACACAACTCGGATAATGCTAG (double strand) [4 bp separation]", "values": [
      {"measurement": "activity", "setting": "[3]", "value": 4, "unit": "% cleaved"},
      {"measurement": "activity", "setting": "[6]", "value": 74, "unit": "% cleaved"},
      {"measurement": "activity", "setting": "[4]; Mg, Zn, 37 C", "value": 74, "unit": "% cleaved"}
    ]},
    {"sequence": "CTAGCATTATCCGAGTTCACACACAACTCGGATAATGCTAG (double strand) [7 bp separation]", "values": [
      {"measurement": "activity", "setting": "[4]", "value": 80, "unit": "% cleaved"}
    ]},
    {"sequence": "CTAGCATTATCCGAGTTCAACCACCAACCACACCAACACCACCAACTCGGATAATGCTAG (double strand) [26 bp separation]", "values": [
      {"measurement": "activity", "setting": "[4]", "value": 35, "unit": "% cleaved"}
    ]},
    {"sequence": "CTAGCATTATCCGAGTTCAACCACCAACCACACCAACTCGGATAATGCTAG (double strand) [17 bp separation]", "values": [
      {"measurement": "activity", "setting": "[4]", "value": 77, "unit": "% cleaved"}
    ]},
    {"sequence": "AAACTGCAAAAG (double strand) [CCR-5 site 2]", "values": [
      {"measurement": "activity (% targeted insertion)", "setting": "[7]", "value": 1}
    ]},
    {"sequence": "GGGGTAGCGG (double strand) [287A site]", "values": [
      {"measurement": "activity (% corrected cells)", "setting": "[8]", "value": 1.2},
      {"measurement": "activity (% corrected cells)", "setting": "[9]", "value": 0.62}
    ]},
    {"sequence": "CTAGCATTATCCGAGTTCAACCACCAACCACACCAACACAACTCGGATAATGCTAG (double strand) [22 bp separation]", "values": [
      {"measurement": "activity", "setting": "[4]", "value": 5, "unit": "% cleaved"}
    ]},
    {"sequence": "CTAGCATTATCCGAGTTCACCACCAACCACACAACTCGGATAATGCTAG (double strand) [15 bp separation]", "values": [
      {"measurement": "activity", "setting": "[3]", "value": 88, "unit": "% cleaved"},
      {"measurement": "activity", "setting": "[4]", "value": 97, "unit": "% cleaved"}
    ]}
  ]
}
